Experimental data taken from US20030143644A1.

Columns and labels:
[1] = target: cytoskeleton; experiment: immunoblot densitometry of the pellet after anti-αβTCR plus GAM ligation, thymocytes
[2] = target: cytoskeleton; experiment: immunoblot densitometry of the detergent insoluble pellet, TCR ligated against non-ligated
[3] = target: cytoskeleton; experiment: immunoblot densitometry of the detergent insoluble pellet, resting cells
[4] = target: cytoskeleton; experiment: immunoblot densitometry of the pellet after anti-αβTCR plus GAM ligation, lymph node T cells
[5] = target: cytoskeleton; experiment: cell-based or functional assay

Sequence of TCR-ζ (P24161 22-164 limits assumed): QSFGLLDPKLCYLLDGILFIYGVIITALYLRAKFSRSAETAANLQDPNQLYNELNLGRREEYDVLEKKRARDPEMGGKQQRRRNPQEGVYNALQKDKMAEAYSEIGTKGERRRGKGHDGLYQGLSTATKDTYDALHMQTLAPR

TCR-ζ (from UniProt P24161 22-164) (receptor)
percent of TCR-ζ in the detergent insoluble pellet (activated thymocytes) [1]: 16%
fold increase in the pellet against non-ligated samples (lymph node T cells) [2]: 6 fold
fold increase in the pellet against non-ligated samples (thymocytes) [2]: 2 fold
percent of TCR-ζ in the detergent insoluble pellet (resting thymocytes and lymph node T cells) [3]: 7%
percent of TCR-ζ in the detergent insoluble pellet (activated lymph node T cells) [4]: 43%

CD8/ζY153E (from UniProt P01731 28-217; P24161 52-164) (receptor)
IL-2 production (fold less IL-2 than wild-type CD8/ζ) [5]: 100

CD8/ζD67-126 (from UniProt P01731 28-217; P24161 52-164) (receptor)
IL-2 production (fold less IL-2 than wild-type CD8/ζ) [5]: 40
